Paper PMC4429112, “Characterization of a Highly pH Stable Chi-Class Glutathione S-Transferase from Synechocystis PCC 6803” (PLoS ONE, 2015)

What was measured:
purified protein = substrate: S=C=NCCc1ccccc1; test: purified protein; assay type: biochemical, Synechocystis sp. PCC 6803; set-up: Vmax: unit not given here; settings: co-substrate 1 mM GSH, 50 mM potassium phosphate pH 6.5, 150 mM NaCl, 30 °C
[1] = target: the molecule itself; test: SEC; Superdex 200 10/300 GL, 20 mM phosphate buffer pH 8.0, 150 mM NaCl, 2 mM GSH, 0.5 mL/min, 25°C; calibrated with molecular weight standards

B1: Glutathione S-transferase sll0067 from Synechocystis PCC 6803 (enzyme, UniProt Q55139 1-184, looked up)
chain: MIKLYGAPQSRASIIQWYLEELSLPYEFVNVNLKEGEHRQAPYLAINPFGKVPAIADGNFHLWESGAILLYLAEKASTIPADAQARALVNQWILFANSTLANGLFIEAVREKEMPRLLQSLEKILGRSPFILGEKFSVVDVAVGSILAYVPIMLKLNFDDYPAVAAYVQGLVQRPAFQASIGAR
notes: gene of 0.55 kb amplified from genomic DNA with primers from the ATG to the stop codon; subunit of about 20 kDa; Cloned at BamHI and HindIII sites of pQE30 and purified on Ni-NTA; also called GST sll0067; recombinant sll0067; source: E. coli M15, purified (Ni-NTA agarose)
Purified protein
  Km: 319.3 ± 33 µM
  Vmax: 21.8
  kcat: 15.2 ± 0.58 s⁻¹
  kcat/Km: 47500 ± 620 M⁻¹ s⁻¹
[1]
  stoichiometry N: 2
